In PMC10761686:

Tests used:
[1] = biological target: actin from rabbit skeletal muscle, as filaments (F-actin) capped at their barbed ends by gelsolin (rabbit) (UniProt P68135)
[2] = biological target: actin from rabbit skeletal muscle, as filaments (F-actin) capped at their barbed ends by gelsolin (rabbit) (UniProt P68135); remark: listed apart in the source

capping activity against TMOD1^wt: inhibition of pyrene-actin polymerisation at pointed ends of long filaments (1:100 gelsolin to actin), without TPM1 (fold weaker than TMOD1^wt) [1]: 2
capping activity against TMOD1^wt: inhibition of pyrene-actin polymerisation at pointed ends of short filaments (1:10 gelsolin to actin), without TPM1 (fold weaker than TMOD1^wt) [1]: 2
inhibition of pyrene-actin depolymerisation from pointed ends against TMOD1^wt, long filaments (1:100 gelsolin to actin), without TPM1 (fold weaker than TMOD1^wt) [2]: 2
inhibition of pyrene-actin depolymerisation from pointed ends against TMOD1^wt, short filaments (1:10 gelsolin to actin), without TPM1 (fold weaker than TMOD1^wt) [2]: 5
Substance: tropomodulin 1 (TMOD1) with the patient variant p.R189W, purified recombinant human (from UniProt P28289-1 1-359) (natural protein)
